This note sets out measurements from US20220162293A1 (UNIVERSITY OF BRITISH COLUMBIA, published 2022).

One test addresses T1, BSA (bovine, UniProt P02769 25-607).
T1 construct: Carrier protein used as negative screening antigen; also called bovine serum albumin
Briefly: screen of hybridoma supernatants.

For the next test, the target named is T2, Linear … (SEQ ID NO: 2).
T2 sequence (peptide): CGGTTEQGG
Kind of test: indirect ELISA, peptide coated 0.1 µg/well, neat hybridoma supernatant.

The target in test [1] is T3, cyclo(CGGTTEQGG) (SEQ ID NO: 2) (cyclic peptide: head to tail cyclization (amide condensation of the linear peptide)).
T3 construct: Coated on ELISA plates
T3 peptide: CGGTTEQGG
Described as above. The procedure:
(§1) ELISA plates were coated with 0.1 μg/well with peptide cyclo([…]) (SEQ ID NO: 2) or cyclo(CGTTEQG) (SEQ ID NO: 3) or the linear versions thereof at 100 μL/well in carbonate Coating Buffer (pH 9.6) overnight at 4 C. In other assays, cyclo([…]) (SEQ ID NO: 32) or cyclo (CGTTEGG) (SEQ ID NO: 29) were also used to coat the ELISA plates.
(§2) The plates were blocked with 3% skim milk powder in PBS for 1 hour at room temperature. The primary antibody, hybridoma tissue culture supernatant neat at 100 uL/well, was incubated for 1 hour at 37 C with shaking. The secondary antibody, goat anti-mouse IgGy-HRP at a 1:10,000 dilution was added at 100 uL/well in PBS-Tween and incubated for 1 hour at 37 C with shaking. All washing steps were performed for 30 mins with PBS-Tween. TMB Substrate was added at 50 uL/well, developed in the dark and stopped with equal volume 1M HCl. The development time was 1-2 min and the plate was read at 450 nm.

Test [2] has as its target T4, TDP-43 in human spinal cord homogenates of sporadic ALS patients (human, UniProt Q13148 1-414, limits assumed).
T4 construct: Tissue homogenate dotted on PVDF; also called sALS samples; pathogenic TDP43 in spinal cord homogenates from ALS patients
Briefly: dot blot of spinal cord homogenates on PVDF.

For test [3], the target named is T5, Linear CGGTTEQGG (SEQ ID NO: 2).
T5 construct: Coated on ELISA plates; also called linear peptide
T5 peptide: CGGTTEQGG
Briefly: indirect ELISA, peptide coated 0.1 µg/well, neat hybridoma supernatant. How it is done:
as §1, §2

Changes are numbered by the printed parent chain.

T1 sequence (P02769 25-607 limits assumed): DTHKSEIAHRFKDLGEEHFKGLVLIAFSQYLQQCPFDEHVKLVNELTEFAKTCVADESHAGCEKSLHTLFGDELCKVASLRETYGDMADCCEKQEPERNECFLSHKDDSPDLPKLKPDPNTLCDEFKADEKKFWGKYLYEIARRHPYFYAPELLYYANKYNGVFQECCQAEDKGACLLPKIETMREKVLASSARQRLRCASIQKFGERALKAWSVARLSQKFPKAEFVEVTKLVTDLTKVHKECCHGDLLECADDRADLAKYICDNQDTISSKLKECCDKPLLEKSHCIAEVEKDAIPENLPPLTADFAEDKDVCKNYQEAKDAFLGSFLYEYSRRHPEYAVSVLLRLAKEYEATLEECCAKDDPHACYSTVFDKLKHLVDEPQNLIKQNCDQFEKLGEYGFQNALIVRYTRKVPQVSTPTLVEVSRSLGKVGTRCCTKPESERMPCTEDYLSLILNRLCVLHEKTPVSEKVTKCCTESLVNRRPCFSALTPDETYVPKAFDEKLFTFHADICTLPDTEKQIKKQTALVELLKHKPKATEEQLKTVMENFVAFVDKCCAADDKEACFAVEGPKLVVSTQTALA
T4 sequence (Q13148 whole entry): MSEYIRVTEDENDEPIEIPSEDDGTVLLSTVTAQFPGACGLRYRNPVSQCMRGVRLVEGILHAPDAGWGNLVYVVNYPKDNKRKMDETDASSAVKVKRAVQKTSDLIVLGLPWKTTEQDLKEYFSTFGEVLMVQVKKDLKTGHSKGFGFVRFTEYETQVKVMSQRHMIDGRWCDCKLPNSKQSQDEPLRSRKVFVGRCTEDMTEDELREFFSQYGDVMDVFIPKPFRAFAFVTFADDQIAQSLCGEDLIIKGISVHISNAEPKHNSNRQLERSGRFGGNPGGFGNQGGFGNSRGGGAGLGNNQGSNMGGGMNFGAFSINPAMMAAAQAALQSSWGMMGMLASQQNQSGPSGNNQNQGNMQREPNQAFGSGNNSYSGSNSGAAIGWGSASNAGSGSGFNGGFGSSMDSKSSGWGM

B1: 11F3 (antibody, V domains shown)
VH: QIQLVQSGPELKKPGETVKISCKASGYTFTDYSMHWVKHSPGKGLKWMGWINTETGEPTYADDFKGRFAFSLETSASTAYLQINNLKNEDTATYFCARGYGNWFAYWGQGTLVTVSA
VL: QIVLTQSPAIMSASLGERVTMTCTASSSVSSSYLHWYQQKPGSSPKLWIYSTSNLASGVPARFSGSGSGTSYSLTISSMEAEDAATYYCHQYHRSPLTFGAGTKLELK
notes: IgG1, kappa; also called clone 11F3; antibody 3
B1: the binding result with BSA is reported as “no binding”. This molecule came in with an ELISA signal (read at 450 nm) (absorbance at 450 nm) with Linear … (SEQ ID NO: 2) of 0.071. Moreover, in test [1], the “ELISA signal (read at 450 nm)” value was 1.1 absorbance at 450 nm.

B2: 3H5 (antibody, V domains shown)
VH: QIQLVQSGPELKKPGETVKISCKASGYTFTDYSMHWVKQAPGKGLKWMGWINTETGEPTYADDFKGRFAFSLETSASTAYLQINNLKNEDTATYFCASRRWYPYYFDYWGQGTTLTVSS
VL: QAVVTQESALTTSPGETVTLTCRSSTGAVTTSNYANWVQEKPDHLFTGLIGGPNNRAPGVPARFSGSLIGDKAALTITGAQTEDEAIYFCALWYSNHWVFGGGTKLTVL
notes: IgG1, lambda; also called clone 3H5; antibody 4
Consider B2, for which the binding result with BSA is “no binding”. The ELISA signal (read at 450 nm) (absorbance at 450 nm) with Linear … (SEQ ID NO: 2) came to 0.068. In test [1], the “ELISA signal (read at 450 nm)” value came to 2.83 absorbance at 450 nm.

B3: 9C5 (antibody, V domains shown)
VH: EVQLVESGGGLVKPGGSLKLSCAASGFTFSDYYMYWVRQTPEKRLEWVATISDGGSYTSYPDSVKGRFTISRDNAKNNLYLQMSSLRSEDTAMYYCARDYYGSSSYTSGFAYWGQGTLVTVSA
VL: DVLMTQTPLSLPVSLGDQASISCRSSQSIVHSNGNTYLEWYLQKPGQSPKLLIYKVSNRFSGVPDRFSGSGSGTDFTLKISRVEAEDLGVYYCFQGSHVPGTFGGGTKLEIK
notes: IgG3, kappa; also called clone 9C5; antibody 6
As to B3, the binding result with BSA was “no binding”. The ELISA signal (read at 450 nm) (absorbance at 450 nm) with Linear … (SEQ ID NO: 2) was 0.115. Besides, the “ELISA signal (read at 450 nm)” value in test [1] was found to be 2.29 absorbance at 450 nm.

B4: 6C5 (antibody, V domains shown)
VH: EVKLVESGGGLVQPGGSLKLSCATSGFTFSDYYMYWVRQTPEKRLEWVAYISNGGGSTYYPDTVKGRFTISRDNAKNTLYLQMSRLKSEDTAMYYCAREGGTAWFAYWGQGTLVTVSA
VL: B3 VL with G101Y
notes: IgG1, kappa; also called Antibody 6C5
Turning to B4, the binding result is on record as “no binding” in the test with BSA and “binds” in test [2]. For the same molecule, the “ELISA signal (read at 450 nm)” value in test [1] was found to be 1.1 absorbance at 450 nm; in test [3] it was 0.191 absorbance at 450 nm.
